Assay: Isoprene synthase activity vs temperature (DMAPP assay, 25 to 80 C)
Format: biochemical
Conditions: FIG. 58
Experimental: The activity of wild type IspS and variants IspS-L494P and IspS-T536F was measured across a spectrum of temperatures. Individual DMAPP assays were performed at 5° C. intervals from 25° C. to 80° C. by incubating the vials in a pre-heated water bath.
The following reaction mixture was used for the DMAPP assay: 25 μL purified protein, 5 μL MgCl2 (1 M), 5 μL DMAPP (100 mM), and 65 μL 100 mM Tris pH 8, 100 mM NaCl for a total volume of 100 μL. The reaction is performed at the specified temperature for 15 minutes in a gas tight 1.8 mL GC tube. Reactions are terminated by the addition of 100 μL 500 mM EDTA (pH 8). The amount of isoprene produced was measured by GC/MS.
The analysis was performed using an Agilent 6890 GC/MS system interfaced with a CTC Analytics CombiPAL autosampler operating in headspace mode. An Agilent HP-5MS GC/MS column (30 m×0.25 mm; 0.25 μm film thickness) was used for separation of analytes. The sampler was set up to inject 500 μL of headspace gas. The GC/MS method utilized helium as the carrier gas at a flow of 1 ml/min. The injection port was held at 250° C. with a split ratio of 50:1. The oven temperature was held at 37° C. for the […] duration of the analysis. The Agilent 5793N mass selective detector was run in single ion monitoring (SIM) mode on m/z 67. The detector was switched off from 1.4 to 1.7 minutes to allow the elution of permanent gases.

B1: T536F: P. alba IspS variant T536F; pDW87, strain DW363, SEQ ID NO: 95 (protein)
chain: MEARRSANYEPNSWDYDYLLSSDTDESIEVYKDKAKKLEAEVRREINNEKAEFLTLLELIDNVQRLGLGYRFESDIRGALDRFVSSGGFDAVTKTSLHGTALSFRLLRQHGFEVSQEAFSGFKDQNGNFLENLKEDIKAILSLYEASFLALEGENILDEAKVFAISHLKELSEEKIGKELAEQVNHALELPLHRRTQRLEAVWSIEAYRKKEDANQVLLELAILDYNMIQSVYQRDLRETSRWWRRVGLATKLHFARDRLIESFYWAVGVAFEPQYSDCRNSVAKMFSFVTIIDDIYDVYGTLDELELFTDAVERWDVNAINDLPDYMKLCFLALYNTINEIAYDNLKDKGENILPYLTKAWADLCNAFLQEAKWLYNKSTPTFDDYFGNAWKSSSGPLQLVFAYFAVVQNIKKEEIENLQKYHDTISRPSHIFRLCNDLASASAEIARGETANSVSCYMRTKGISEELATESVMNLIDETWKKMNKEKLGGSLFAKPFVETAINLARQSHCTYHNGDAHTSPDELTRKRVLSVIFEPILPFERENLYFQGLEHHHHHH
  temperature activity ratio curve (specific activity at a given temperature / at 35° C.), in words: increased activity and thermostability
